Measurements: paper PMC13086964, “USP7 deubiquitinase stabilizes FAN1 to support DNA crosslink repair and suppress CAG repeat expansion” (Nature Communications, 2026)

Target: USP7 TRAF domain (residues 2-207), biotinylated (UniProt Q93009)
Assay: fluorescence polarisation
Conditions: read at the highest USP7-TRAF concentration, about 190 µM; parent: est. 100; read off a plot

Chain of USP7 TRAF domain (residues 2-207), biotinylated (Q93009 2-207): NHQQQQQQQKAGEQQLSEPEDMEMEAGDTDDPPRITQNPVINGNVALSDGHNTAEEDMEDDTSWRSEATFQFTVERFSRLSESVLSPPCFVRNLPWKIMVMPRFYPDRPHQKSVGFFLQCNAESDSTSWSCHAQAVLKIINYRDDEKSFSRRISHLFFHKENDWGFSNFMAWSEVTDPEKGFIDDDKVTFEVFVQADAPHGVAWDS

| Substance | response (% (normalized FP)) |
| --- | --- |
| FITC-labelled FAN1-derived 8mer peptide, wild-type (181-PQSS-184 region) S184A | 30 |
| FITC-labelled FAN1-derived 8mer peptide, wild-type (181-PQSS-184 region) Q182A | 99 |
| FITC-labelled FAN1-derived 8mer peptide, wild-type (181-PQSS-184 region) P181A | 100 |
